Experimental data taken from paper PMC6275079.

Molecular target: caveolin-1 (rat (endogenous in cerebellar granule neurons)) (UniProt P41350)
Experiment: co-IP; anti-caveolin-1 (sc-894) on ImmunoCruz IP/WB Optima matrix; 400 µg of CGN lysate treated with 1% Triton X-100 for 30 min, incubated overnight at 4 °C, washed with Tris-buffered saline; PKA and CaMK-II detected by Western blot in precipitate and supernatant, percent by densitometry

Sequence of UniProt P41350 (P41350 whole entry): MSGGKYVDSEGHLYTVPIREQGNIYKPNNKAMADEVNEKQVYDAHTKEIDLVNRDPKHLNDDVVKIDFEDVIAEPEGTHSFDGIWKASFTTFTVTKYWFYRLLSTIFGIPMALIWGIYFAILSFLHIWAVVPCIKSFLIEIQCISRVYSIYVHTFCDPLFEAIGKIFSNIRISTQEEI

Substance | percentage of coimmunoprecipitation with caveolin-1
calmodulin-dependent protein kinase II (from UniProt P11275 1-478) (enzyme) | 39%
protein kinase A (from UniProt P27791 1-351) (enzyme) | 16%
